Consider two molecules from publication PMC6239174.

The target in series [1] is T1, Slbp2-MBP (Danio rerio (zebrafish), UniProt A1L2F4 1-326). The series is described as follows: EMSA. Background: In EMSA bound probe runs differently from free probe, usually more slowly.
Series [2] has as its target T1, Slbp2-MBP. Nature of the series: competition EMSA.

B1: h2a mRNA stem-loop (H2a SL) probe (structured_RNA)
RNA: AAAAAGGUUCUUUUAAGAACCACCCAUUUUU
Turning to B1, the binding result in series [1] is “binds”.

B2: unlabeled H2a SL competitor (structured_RNA)
RNA: AAAAAGGUUCUUUUAAGAACCACCCAUUUUU
With B2, in series [2], the binding result is given as “binds”.
